Source: the supplement of paper PMC9112550, “Optimization of the antimicrobial peptide Bac7 by deep mutational scanning” (BMC Biology, 2022)

System: Escherichia coli TOP10
Experiment: shrunken log2 fold change of peptide-encoding DNA abundance (4.5 h post-induction vs induction); higher = less antimicrobial activity (less host growth inhibition)
Conditions: time post-induction: 4.5 h; library: site-saturation at positions 5, 18, 19, 20
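Also: peptides expressed intracellularly from a pBAD plasmid library in pooled LB shake-flask culture, induced with 0.3% L-arabinose, DNA abundance read by NGS, three biological replicates, DESeq2 with apeglm shrinkage.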

In order of rising “shrunken log2 fold change” value:
1. RRIRCRPPRLPRPRPRPYILPRP  -1.53
2. RRIRCRPPRLPRPRPRPYWHPRP  -1.53
3. RRIRCRPPRLPRPRPRPYITPRP  -1.44
4. RRIRCRPPRLPRPRPRPYYPPRP  -1.27
5. RRIRCRPPRLPRPRPRPYKSPRP  -1.19
6. RRIRCRPPRLPRPRPRPYSPPRP  -1.13
7. RRIRCRPPRLPRPRPRPYNKPRP  -1.02
8. RRIRCRPPRLPRPRPRPYYKPRP  -0.992
9. RRIRCRPPRLPRPRPRPYRHPRP  -0.982
10. RRIRCRPPRLPRPRPRPYINPRP  -0.968
11. RRIRCRPPRLPRPRPRPYDFPRP  -0.894
12. RRIRCRPPRLPRPRPRPYSCPRP  -0.833
13. RRIRCRPPRLPRPRPRPYIPPRP  -0.771
14. RRIRCRPPRLPRPRPRPYPPPRP  -0.631
15. RRIRCRPPRLPRPRPRPYCDPRP  -0.623
16. RRIRCRPPRLPRPRPRPVIMPRP  -0.604
17. RRIRDRPPRLPRPRPRPDKYPRP  -0.582
18. RRIRCRPPRLPRPRPRPYLDPRP  -0.575
19. RRIRCRPPRLPRPRPRPVIHPRP  -0.567
20. RRIRCRPPRLPRPRPRPYTSPRP  -0.526
21. RRIRCRPPRLPRPRPRPWWHPRP  -0.523
22. RRIRCRPPRLPRPRPRPVITPRP  -0.496
23. RRIRCRPPRLPRPRPRPWDCPRP  -0.469
24. RRIRCRPPRLPRPRPRPYFDPRP  -0.446
25. RRIRCRPPRLPRPRPRPYCLPRP  -0.442
26. RRIRCRPPRLPRPRPRPWVPPRP  -0.423
27. RRIRCRPPRLPRPRPRPWHIPRP  -0.421
28. RRIRCRPPRLPRPRPRPYWQPRP  -0.419
29. RRIRCRPPRLPRPRPRPVLIPRP  -0.414
30. RRIRCRPPRLPRPRPRPYMPPRP  -0.404
31. RRIRCRPPRLPRPRPRPYQYPRP  -0.399
32. RRIRCRPPRLPRPRPRPYDDPRP  -0.396
33. RRIRCRPPRLPRPRPRPVIPPRP  -0.392
34. RRIRCRPPRLPRPRPRPYRAPRP  -0.383
35. RRIRCRPPRLPRPRPRPWFGPRP  -0.374
36. RRIRCRPPRLPRPRPRPWTHPRP  -0.325
37. RRIRCRPPRLPRPRPRPYTKPRP  -0.321
38. RRIRCRPPRLPRPRPRPWLHPRP  -0.305
39. RRIRCRPPRLPRPRPRPWLAPRP  -0.298
40. RRIRCRPPRLPRPRPRPYGWPRP  -0.27
41. RRIRCRPPRLPRPRPRPVNEPRP  -0.266
42. RRIRCRPPRLPRPRPRPVKHPRP  -0.263
43. RRIRCRPPRLPRPRPRPVPNPRP  -0.26
44. RRIRDRPPRLPRPRPRPCWIPRP  -0.255
45. RRIRCRPPRLPRPRPRPVLEPRP  -0.249
46. RRIRDRPPRLPRPRPRPDKNPRP  -0.224
47. RRIRDRPPRLPRPRPRPCRAPRP  -0.221
48. RRIRCRPPRLPRPRPRPVMMPRP  -0.214
49. RRIRDRPPRLPRPRPRPAHNPRP  -0.206
50. RRIRDRPPRLPRPRPRPCKVPRP  -0.202
51. RRIRCRPPRLPRPRPRPVIAPRP  -0.2
52. RRIRCRPPRLPRPRPRPVLSPRP  -0.192
53. RRIRCRPPRLPRPRPRPVVNPRP  -0.18
54. RRIRCRPPRLPRPRPRPWMPPRP  -0.178
55. RRIRCRPPRLPRPRPRPYQPPRP  -0.152
56. RRIRDRPPRLPRPRPRPANYPRP  -0.148
57. RRIRCRPPRLPRPRPRPVVMPRP  -0.138
58. RRIRCRPPRLPRPRPRPWYEPRP  -0.135
59. RRIRCRPPRLPRPRPRPWLKPRP  -0.133
60. RRIRDRPPRLPRPRPRPCFIPRP  -0.13
61. RRIRCRPPRLPRPRPRPYQQPRP  -0.12
62. RRIRCRPPRLPRPRPRPYALPRP  -0.115
63. RRIRDRPPRLPRPRPRPAFVPRP  -0.114
64. RRIRDRPPRLPRPRPRPAYGPRP  -0.11
65. RRIRDRPPRLPRPRPRPCDIPRP  -0.11
66. RRIRCRPPRLPRPRPRPWAPPRP  -0.102
67. RRIRDRPPRLPRPRPRPADNPRP  -0.0897
68. RRIRDRPPRLPRPRPRPAHGPRP  -0.0897
69. RRIRCRPPRLPRPRPRPWVFPRP  -0.0816
70. RRIRCRPPRLPRPRPRPWTIPRP  -0.0777
71. RRIRCRPPRLPRPRPRPVMIPRP  -0.0658
72. RRIRDRPPRLPRPRPRPDHQPRP  -0.0643
73. RRIRCRPPRLPRPRPRPWPQPRP  -0.0463
74. RRIRDRPPRLPRPRPRPDLRPRP  -0.0435
75. RRIRDRPPRLPRPRPRPDDSPRP  -0.0417
76. RRIRDRPPRLPRPRPRPDFCPRP  -0.0409
77. RRIRCRPPRLPRPRPRPVNRPRP  -0.0405
78. RRIRDRPPRLPRPRPRPDQIPRP  -0.0336
79. RRIRDRPPRLPRPRPRPCFPPRP  -0.0323
80. RRIRDRPPRLPRPRPRPAWMPRP  -0.0284
81. RRIRDRPPRLPRPRPRPCGTPRP  -0.0281
82. RRIRDRPPRLPRPRPRPDMPPRP  -0.0262
83. RRIRDRPPRLPRPRPRPCDGPRP  -0.0192
84. RRIRDRPPRLPRPRPRPCMEPRP  -0.0179
85. RRIRCRPPRLPRPRPRPYMGPRP  -0.017
86. RRIRDRPPRLPRPRPRPCLGPRP  -0.015
87. RRIRDRPPRLPRPRPRPCIQPRP  -0.0125
88. RRIRDRPPRLPRPRPRPDEVPRP  -0.01
89. RRIRDRPPRLPRPRPRPCRKPRP  -0.00804
90. RRIRDRPPRLPRPRPRPCQMPRP  -0.00455
91. RRIRCRPPRLPRPRPRPYPRPRP  -0.00439
92. RRIRCRPPRLPRPRPRPWVWPRP  -0.00389
93. RRIRDRPPRLPRPRPRPDDDPRP  -0.00186
94. RRIRDRPPRLPRPRPRPCDEPRP  -0.00174
95. RRIRDRPPRLPRPRPRPANCPRP  -0.00155
96. RRIRCRPPRLPRPRPRPWEGPRP  -0.00146
97. RRIRCRPPRLPRPRPRPYGCPRP  -0.00123
98. RRIRDRPPRLPRPRPRPAVSPRP  -0.000946
99. RRIRDRPPRLPRPRPRPAIYPRP  0.00069
100. RRIRCRPPRLPRPRPRPYRQPRP  0.00128
101. RRIRDRPPRLPRPRPRPDKPPRP  0.00451
102. RRIRDRPPRLPRPRPRPAGEPRP  0.0114
103. RRIRDRPPRLPRPRPRPCISPRP  0.0261
104. RRIRDRPPRLPRPRPRPCMDPRP  0.0285
105. RRIRCRPPRLPRPRPRPVPIPRP  0.0325
106. RRIRDRPPRLPRPRPRPASVPRP  0.0326
107. RRIRDRPPRLPRPRPRPCDWPRP  0.0416
108. RRIRDRPPRLPRPRPRPAEQPRP  0.0426
109. RRIRCRPPRLPRPRPRPYPKPRP  0.0488
110. RRIRDRPPRLPRPRPRPCWQPRP  0.0562
111. RRIRCRPPRLPRPRPRPVKKPRP  0.0604
112. RRIRDRPPRLPRPRPRPCNAPRP  0.0759
113. RRIRDRPPRLPRPRPRPCCKPRP  0.0846
114. RRIRDRPPRLPRPRPRPDKCPRP  0.089
115. RRIRDRPPRLPRPRPRPDMIPRP  0.0954
116. RRIRCRPPRLPRPRPRPWQRPRP  0.109
117. RRIRDRPPRLPRPRPRPCPTPRP  0.131
118. RRIRCRPPRLPRPRPRPVQSPRP  0.132
119. RRIRDRPPRLPRPRPRPAKTPRP  0.152
120. RRIRDRPPRLPRPRPRPDAKPRP  0.162
121. RRIRDRPPRLPRPRPRPCCSPRP  0.166
122. RRIRDRPPRLPRPRPRPDGTPRP  0.184
123. RRIRCRPPRLPRPRPRPWQWPRP  0.187
124. RRIRDRPPRLPRPRPRPCAVPRP  0.189
125. RRIRCRPPRLPRPRPRPVSCPRP  0.193
126. RRIRDRPPRLPRPRPRPADAPRP  0.196
127. RRIRDRPPRLPRPRPRPDIAPRP  0.209
128. RRIRDRPPRLPRPRPRPDIPPRP  0.213
129. RRIRDRPPRLPRPRPRPDMAPRP  0.219
130. RRIRDRPPRLPRPRPRPATFPRP  0.222
131. RRIRDRPPRLPRPRPRPDDVPRP  0.276
132. RRIRDRPPRLPRPRPRPDITPRP  0.282
133. RRIRDRPPRLPRPRPRPCFFPRP  0.304
134. RRIRDRPPRLPRPRPRPDCGPRP  0.315
135. RRIRDRPPRLPRPRPRPAAKPRP  0.359
136. RRIRCRPPRLPRPRPRPVNWPRP  0.393
137. RRIRCRPPRLPRPRPRPWPRPRP  0.398
138. RRIRDRPPRLPRPRPRPAHWPRP  0.404
139. RRIRDRPPRLPRPRPRPASEPRP  0.453
140. RRIRDRPPRLPRPRPRPDCHPRP  0.469
141. RRIRCRPPRLPRPRPRPVRPPRP  0.504
142. RRIRDRPPRLPRPRPRPCAEPRP  0.508
143. RRIRDRPPRLPRPRPRPAACPRP  0.598
144. RRIRDRPPRLPRPRPRPATAPRP  0.722
145. RRIRDRPPRLPRPRPRPACLPRP  0.723
146. RRIRDRPPRLPRPRPRPAWRPRP  0.812
147. RRIRDRPPRLPRPRPRPAIAPRP  0.878
148. RRIRDRPPRLPRPRPRPAGWPRP  1.05
149. RRIRDRPPRLPRPRPRPDFVPRP  1.35
150. RRIRDRPPRLPRPRPRPANSPRP  2.98
